Experimental data as given in patent US20260167699A1 (Chugai, published 2026).

B1: GpH7-A5/GpH7-B3 variant H268_05P/GpL16-k0 (antibody, human IgG1, kappa)
heavy 1: not shown
heavy 2: not shown
light: DIVMTQSPLSLPVTPGEPASISCQASESLVHSNRNTYLHWYLQKPGQSPQLLIYKVSNRFSGVPDRFSGSGSGTDFTLKISRVEAEDVGVYYCSQNTHVPPTFGQGTKVEIERTVAAPSVFIFPPSDEQLKSGTASVVCLLNNFYPREAKVQWKVDNALQSGNSQESVTEQDSKDSTYSLSSTLTLSKADYEKHKVYACEVTHQGLSSPVTKSFNRGEC
B2: GpH7-A5/GpH7-B3 variant H268_20W/GpL16-k0 (antibody, human IgG1, kappa)
heavy 1: not shown
heavy 2: not shown
light: DIVMTQSPLSLPVTPGEPASISCQASESLVHSNRNTYLHWYLQKPGQSPQLLIYKVSNRFSGVPDRFSGSGSGTDFTLKISRVEAEDVGVYYCSQNTHVPPTFGQGTKVEIERTVAAPSVFIFPPSDEQLKSGTASVVCLLNNFYPREAKVQWKVDNALQSGNSQESVTEQDSKDSTYSLSSTLTLSKADYEKHKVYACEVTHQGLSSPVTKSFNRGEC
B3: GpH7-A5/GpH7-B3 variant H268_18N/GpL16-k0 (antibody, human IgG1, kappa)
heavy 1: not shown
heavy 2: not shown
light: DIVMTQSPLSLPVTPGEPASISCQASESLVHSNRNTYLHWYLQKPGQSPQLLIYKVSNRFSGVPDRFSGSGSGTDFTLKISRVEAEDVGVYYCSQNTHVPPTFGQGTKVEIERTVAAPSVFIFPPSDEQLKSGTASVVCLLNNFYPREAKVQWKVDNALQSGNSQESVTEQDSKDSTYSLSSTLTLSKADYEKHKVYACEVTHQGLSSPVTKSFNRGEC
B4: GpH7-A5/GpH7-B3 variant H268_15Y/GpL16-k0 (antibody, human IgG1, kappa)
heavy 1: not shown
heavy 2: not shown
light: DIVMTQSPLSLPVTPGEPASISCQASESLVHSNRNTYLHWYLQKPGQSPQLLIYKVSNRFSGVPDRFSGSGSGTDFTLKISRVEAEDVGVYYCSQNTHVPPTFGQGTKVEIERTVAAPSVFIFPPSDEQLKSGTASVVCLLNNFYPREAKVQWKVDNALQSGNSQESVTEQDSKDSTYSLSSTLTLSKADYEKHKVYACEVTHQGLSSPVTKSFNRGEC
B5: GpH7-A5/GpH7-B3 variant H268_06M/GpL16-k0 (antibody, human IgG1, kappa)
heavy 1: not shown
heavy 2: not shown
light: DIVMTQSPLSLPVTPGEPASISCQASESLVHSNRNTYLHWYLQKPGQSPQLLIYKVSNRFSGVPDRFSGSGSGTDFTLKISRVEAEDVGVYYCSQNTHVPPTFGQGTKVEIERTVAAPSVFIFPPSDEQLKSGTASVVCLLNNFYPREAKVQWKVDNALQSGNSQESVTEQDSKDSTYSLSSTLTLSKADYEKHKVYACEVTHQGLSSPVTKSFNRGEC
B6: GpH7-A5/GpH7-B3 variant H268_13S/GpL16-k0 (antibody, human IgG1, kappa)
heavy 1: not shown
heavy 2: not shown
light: DIVMTQSPLSLPVTPGEPASISCQASESLVHSNRNTYLHWYLQKPGQSPQLLIYKVSNRFSGVPDRFSGSGSGTDFTLKISRVEAEDVGVYYCSQNTHVPPTFGQGTKVEIERTVAAPSVFIFPPSDEQLKSGTASVVCLLNNFYPREAKVQWKVDNALQSGNSQESVTEQDSKDSTYSLSSTLTLSKADYEKHKVYACEVTHQGLSSPVTKSFNRGEC
B7: GpH7-A5/GpH7-B3 variant H268_09D/GpL16-k0 (antibody, human IgG1, kappa)
heavy 1: not shown
heavy 2: not shown
light: DIVMTQSPLSLPVTPGEPASISCQASESLVHSNRNTYLHWYLQKPGQSPQLLIYKVSNRFSGVPDRFSGSGSGTDFTLKISRVEAEDVGVYYCSQNTHVPPTFGQGTKVEIERTVAAPSVFIFPPSDEQLKSGTASVVCLLNNFYPREAKVQWKVDNALQSGNSQESVTEQDSKDSTYSLSSTLTLSKADYEKHKVYACEVTHQGLSSPVTKSFNRGEC
B8: GpH7-A5/GpH7-B3 variant H268_10E/GpL16-k0 (antibody, human IgG1, kappa)
heavy 1: not shown
heavy 2: not shown
light: DIVMTQSPLSLPVTPGEPASISCQASESLVHSNRNTYLHWYLQKPGQSPQLLIYKVSNRFSGVPDRFSGSGSGTDFTLKISRVEAEDVGVYYCSQNTHVPPTFGQGTKVEIERTVAAPSVFIFPPSDEQLKSGTASVVCLLNNFYPREAKVQWKVDNALQSGNSQESVTEQDSKDSTYSLSSTLTLSKADYEKHKVYACEVTHQGLSSPVTKSFNRGEC
B9: GpH7-A5/GpH7-B3 variant H268_08L/GpL16-k0 (antibody, human IgG1, kappa)
heavy 1: not shown
heavy 2: not shown
light: DIVMTQSPLSLPVTPGEPASISCQASESLVHSNRNTYLHWYLQKPGQSPQLLIYKVSNRFSGVPDRFSGSGSGTDFTLKISRVEAEDVGVYYCSQNTHVPPTFGQGTKVEIERTVAAPSVFIFPPSDEQLKSGTASVVCLLNNFYPREAKVQWKVDNALQSGNSQESVTEQDSKDSTYSLSSTLTLSKADYEKHKVYACEVTHQGLSSPVTKSFNRGEC
B10: GpH7-A5/GpH7-B3 variant H268_07I/GpL16-k0 (antibody, human IgG1, kappa)
heavy 1: not shown
heavy 2: not shown
light: DIVMTQSPLSLPVTPGEPASISCQASESLVHSNRNTYLHWYLQKPGQSPQLLIYKVSNRFSGVPDRFSGSGSGTDFTLKISRVEAEDVGVYYCSQNTHVPPTFGQGTKVEIERTVAAPSVFIFPPSDEQLKSGTASVVCLLNNFYPREAKVQWKVDNALQSGNSQESVTEQDSKDSTYSLSSTLTLSKADYEKHKVYACEVTHQGLSSPVTKSFNRGEC
B11: GpH7-A5/GpH7-B3 variant H268_12R/GpL16-k0 (antibody, human IgG1, kappa)
heavy 1: not shown
heavy 2: not shown
light: DIVMTQSPLSLPVTPGEPASISCQASESLVHSNRNTYLHWYLQKPGQSPQLLIYKVSNRFSGVPDRFSGSGSGTDFTLKISRVEAEDVGVYYCSQNTHVPPTFGQGTKVEIERTVAAPSVFIFPPSDEQLKSGTASVVCLLNNFYPREAKVQWKVDNALQSGNSQESVTEQDSKDSTYSLSSTLTLSKADYEKHKVYACEVTHQGLSSPVTKSFNRGEC
B12: GpH7-A5/GpH7-B3 variant H268_11K/GpL16-k0 (antibody, human IgG1, kappa)
heavy 1: not shown
heavy 2: not shown
light: DIVMTQSPLSLPVTPGEPASISCQASESLVHSNRNTYLHWYLQKPGQSPQLLIYKVSNRFSGVPDRFSGSGSGTDFTLKISRVEAEDVGVYYCSQNTHVPPTFGQGTKVEIERTVAAPSVFIFPPSDEQLKSGTASVVCLLNNFYPREAKVQWKVDNALQSGNSQESVTEQDSKDSTYSLSSTLTLSKADYEKHKVYACEVTHQGLSSPVTKSFNRGEC
B13: GpH7-A5/GpH7-B3 variant L234_01G/GpL16-k0 (antibody, human IgG1, kappa)
heavy 1: not shown
heavy 2: not shown
light: DIVMTQSPLSLPVTPGEPASISCQASESLVHSNRNTYLHWYLQKPGQSPQLLIYKVSNRFSGVPDRFSGSGSGTDFTLKISRVEAEDVGVYYCSQNTHVPPTFGQGTKVEIERTVAAPSVFIFPPSDEQLKSGTASVVCLLNNFYPREAKVQWKVDNALQSGNSQESVTEQDSKDSTYSLSSTLTLSKADYEKHKVYACEVTHQGLSSPVTKSFNRGEC
B14: GpH7-A5/GpH7-B3 variant H268_19Q/GpL16-k0 (antibody, human IgG1, kappa)
heavy 1: not shown
heavy 2: not shown
light: DIVMTQSPLSLPVTPGEPASISCQASESLVHSNRNTYLHWYLQKPGQSPQLLIYKVSNRFSGVPDRFSGSGSGTDFTLKISRVEAEDVGVYYCSQNTHVPPTFGQGTKVEIERTVAAPSVFIFPPSDEQLKSGTASVVCLLNNFYPREAKVQWKVDNALQSGNSQESVTEQDSKDSTYSLSSTLTLSKADYEKHKVYACEVTHQGLSSPVTKSFNRGEC

Tests used:
Assay in all cases: SPR, vs GpH7-A5/GpH7-B3/GpL16-k0 =100
[1] = biological target: T1, FcγRIa extracellular domain, His-tagged (human, UniProt P12314 16-292)
T1 construct: extracellular domain; also called 1a
T1 sequence (P12314 other isoform, or with tags, fused parts or gaps): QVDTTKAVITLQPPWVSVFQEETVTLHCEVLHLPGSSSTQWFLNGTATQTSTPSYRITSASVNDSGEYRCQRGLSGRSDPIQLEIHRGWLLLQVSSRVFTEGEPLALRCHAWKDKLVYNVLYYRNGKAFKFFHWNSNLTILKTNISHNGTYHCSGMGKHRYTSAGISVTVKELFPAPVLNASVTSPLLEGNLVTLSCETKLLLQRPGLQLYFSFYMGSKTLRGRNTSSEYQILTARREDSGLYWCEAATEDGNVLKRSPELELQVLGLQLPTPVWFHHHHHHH

[2] = biological target: T2, FcγRIIa(R) extracellular domain, His-tagged (human, UniProt P12318 34-217)
T2 construct: extracellular domain; also called 2aR
T2 sequence: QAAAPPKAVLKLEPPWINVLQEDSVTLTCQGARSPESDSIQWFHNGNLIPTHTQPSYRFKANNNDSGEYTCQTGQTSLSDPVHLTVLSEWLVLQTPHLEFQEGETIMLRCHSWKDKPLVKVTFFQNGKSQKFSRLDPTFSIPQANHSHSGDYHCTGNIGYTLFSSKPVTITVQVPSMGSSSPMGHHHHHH

[3] = biological target: T3, FcγRIIa(H) extracellular domain, His-tagged (human, UniProt P12318 34-217)
T3 construct: extracellular domain; also called 2aH
T3 sequence: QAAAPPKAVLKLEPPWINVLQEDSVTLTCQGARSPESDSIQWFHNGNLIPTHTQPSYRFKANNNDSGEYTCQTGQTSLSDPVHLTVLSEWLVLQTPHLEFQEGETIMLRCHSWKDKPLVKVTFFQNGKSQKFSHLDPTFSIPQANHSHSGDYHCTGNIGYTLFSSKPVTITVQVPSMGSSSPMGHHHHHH

[4] = biological target: T4, FcγRIIb extracellular domain, His-tagged (human, UniProt P31994 43-217)
T4 construct: extracellular domain; also called 2b
T4 sequence: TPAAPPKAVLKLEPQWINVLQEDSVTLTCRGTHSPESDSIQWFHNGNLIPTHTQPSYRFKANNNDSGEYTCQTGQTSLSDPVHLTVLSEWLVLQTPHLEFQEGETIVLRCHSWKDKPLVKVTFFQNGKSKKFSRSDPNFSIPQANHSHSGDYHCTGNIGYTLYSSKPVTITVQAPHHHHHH

[5] = biological target: T5, FcγRIIIa extracellular domain, His-tagged (human, UniProt P08637 17-208)
T5 construct: extracellular domain; also called 3a
T5 sequence (P08637 other isoform, or with tags, fused parts or gaps): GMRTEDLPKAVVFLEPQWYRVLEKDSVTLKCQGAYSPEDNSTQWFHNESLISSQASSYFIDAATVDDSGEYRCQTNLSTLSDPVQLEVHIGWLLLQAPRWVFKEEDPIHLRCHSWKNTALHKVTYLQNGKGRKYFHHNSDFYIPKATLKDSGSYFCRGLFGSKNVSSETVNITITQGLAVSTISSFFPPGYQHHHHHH

Row | Binder | He/Con 1a [1] | He/Con 2aR [2] | He/Con 2aH [3] | He/Con 2b [4] | He/Con 3a [5]
1 | B1 | 106 % of control | 114 % of control | 82.7 % of control | 122 % of control | 75.6 % of control
2 | B2 | 103 % of control | 122 % of control | 96.9 % of control | 117 % of control | 82 % of control
3 | B3 | 104 % of control | 138 % of control | 113 % of control | 164 % of control | 103 % of control
4 | B4 | 104 % of control | 118 % of control | 113 % of control | 112 % of control | 96.5 % of control
5 | B5 | 101 % of control | 87.2 % of control | 85.8 % of control | 69 % of control | 79.5 % of control
6 | B6 | 106 % of control | 137 % of control | 114 % of control | 168 % of control | 121 % of control
7 | B7 | 106 % of control | 161 % of control | 134 % of control | 251 % of control | 195 % of control
8 | B8 | 107 % of control | 159 % of control | 126 % of control | 242 % of control | 184 % of control
9 | B9 | 104 % of control | 91.4 % of control | 85.9 % of control | 71.2 % of control | 75.9 % of control
10 | B10 | 104 % of control | 102 % of control | 91.2 % of control | 93.4 % of control | 84.1 % of control
11 | B11 | 103 % of control | 113 % of control | 90.9 % of control | 94.3 % of control | 76 % of control
12 | B12 | 102 % of control | 108 % of control | 89.8 % of control | 87.2 % of control | 81.6 % of control
13 | B13 | 99.2 % of control | 72.4 % of control | 84.1 % of control | 57.8 % of control | 55.8 % of control
14 | B14 | 104 % of control | 128 % of control | 104 % of control | 140 % of control | 113 % of control
